Test results: PMC4072508, “Genome-Wide Prediction and Validation of Peptides That Bind Human Prosurvival Bcl-2 Proteins” (PLoS Computational Biology, 2014)

Biological target: T1, Mcl-1, Q07820
T1 chain: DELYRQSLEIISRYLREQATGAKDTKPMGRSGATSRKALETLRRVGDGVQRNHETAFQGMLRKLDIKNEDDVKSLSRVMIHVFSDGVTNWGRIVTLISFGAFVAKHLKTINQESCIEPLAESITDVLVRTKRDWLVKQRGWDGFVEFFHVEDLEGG
Experiment: peptide SPOT array, c-Myc-tagged receptor at 1 uM or 100 nM, anti-c-Myc-Cy3

DLSAVTLSRELQAMLEQLAENYHNTW [RYR1] and VLSRIEAGRSDKSVADEFGISKSTFY [TIGD7_3eA] are the same in SPOT signal as a fraction of Bim BH3's signal on the same receptor and array: 0.02 for the first, 0.02 for the second.

Going from CALIAGATLHVAWLLDSQVILVQQGQ [PPM1F] to RLAHEHHCLRIKILLDCYYCVSGLPE [ADCY8], the SPOT signal as a fraction of Bim BH3's signal on the same receptor and array rises from 0.01 to 0.03.

Going from TPSRSALSSELSLVGDTTGDTLEKFV [CREBBP] to IGFFIAFGIAMGKMLDQAKLMVDFFN, the SPOT signal as a fraction of Bim BH3's signal on the same receptor and array rises from 0.01 to 0.03.

Going from RCELQICGLAMADAGEYLCVCGQERT [OBSCN] to SKFVILSAHKDVFIGDTLTRQVTAQD [NEDD9], the SPOT signal as a fraction of Bim BH3's signal on the same receptor and array rises from 0.01 to 0.02.

Going from GLTWDPVGKYIASQADDRSLKVWRTL [HIRA] to QLSKPGAALYDQSIGEGFKEAVQYVL [SOS1], the SPOT signal as a fraction of Bim BH3's signal on the same receptor and array falls from 0.94 to 0.02.

Going from SALETQVAAAVQALADDYLAQLSLEP [TRO] to NKSLTTLGLVISSLLDQAAGKGKSKF, the SPOT signal as a fraction of Bim BH3's signal on the same receptor and array rises from 0.01 to 0.18.

First: KNIAGALAFWMANASELLNFIKQDRD [MLLT4]
Second: QQMHHNAATAMAQRLDMLRGLSPRES [NCOR2]
The SPOT signal as a fraction of Bim BH3's signal on the same receptor and array of the first is lower: 0.03 for the first, 0.08 for the second.

SKFVILSAHKLVFILDTLSRQAKAAD [BCAR1] and FRLAQMCGLHDVVHADELEELINYYQ [CLTC] are the same in SPOT signal as a fraction of Bim BH3's signal on the same receptor and array: 0.02 for the first, 0.02 for the second.

Compared with RDPQGWVAGNDSARGDGAAGFTLPGF [MST1R], SQGDKRVAFFMRKGADCLSKWVGESE [ATAD2] is higher in SPOT signal as a fraction of Bim BH3's signal on the same receptor and array: 0.02 for the first, 0.06 for the second.

Compared with DVGTGAGLLEIKKIGDEYFTFITDCK [CCT3], GSGLHGWAFTLKQFLEMYVAKFAAKG [EEF2] is higher in SPOT signal as a fraction of Bim BH3's signal on the same receptor and array: 0.01 for the first, 0.12 for the second.

Going from AICIEEIGVWDKMYSDAFLNDSYLKY to DSLAKFAGRKLKDCLEDLLVEISEVL, the SPOT signal as a fraction of Bim BH3's signal on the same receptor and array falls from 0.03 to 0.02.

Compared with CILNSFYGYVMRKGARWYSMEMAGIV [POLE], PSLSKELTSSLAGVGDVSFDSDSQFP [CRTC1] is lower in SPOT signal as a fraction of Bim BH3's signal on the same receptor and array: 0.12 for the first, 0.01 for the second.

First: LGLGELAGLTVANELDSLTYDIANNK [STRN]
Second: RIEMWISILELNELLEYAAVELHQAK
The SPOT signal as a fraction of Bim BH3's signal on the same receptor and array of the first is lower: 0.01 for the first, 0.03 for the second.

Compared with NKRHRPIGIGVQGLLDAFILMRYPFE [RRM1], AICIEEIGVWMKMYLDAFLNDSYLKY is lower in SPOT signal as a fraction of Bim BH3's signal on the same receptor and array: 0.05 for the first, 0.03 for the second.

Going from NKSLTTLGLVDSSLADQAAGKGKSKF to CGDLASLSIDIWTLGEEVDGRRLVVA [BIRC6], the SPOT signal as a fraction of Bim BH3's signal on the same receptor and array falls from 0.19 to 0.02.

ELQAPATVQSLGLLLDRLCVGAAGGF [CDC42BPG] and VDFYQPTCIVLQCGLDSLGCDRLGCF [HDAC3] are the same in SPOT signal as a fraction of Bim BH3's signal on the same receptor and array: 0.01 for the first, 0.01 for the second.

SPYVFNGGTIDAIAGEDFAIVASDTR [PSMB1] and ERAISCMGQIICNLLDNLGSDLPNTL [CAND1] are the same in SPOT signal as a fraction of Bim BH3's signal on the same receptor and array: 0.01 for the first, 0.01 for the second.

PPDAHVLGKALEAAGQDFSLDLRSTG [CIITA] and IGFFIAFGIADGKMGDQAKLMVDFFN are the same in SPOT signal as a fraction of Bim BH3's signal on the same receptor and array: 0.01 for the first, 0.01 for the second.

Compared with KKCQDMIMTELTNALDDVVVFYNDKA [ITPR3], DHTDGVVACADGLIGDLCTAFGKDVL [KPNB1] is lower in SPOT signal as a fraction of Bim BH3's signal on the same receptor and array: 0.02 for the first, 0.01 for the second.

DSLAKFAGRKDKDCGEDLLVEISEVL and IQQDLGCGASLGVISDNLLVTGGQGC [SCAP] are the same in SPOT signal as a fraction of Bim BH3's signal on the same receptor and array: 0.01 for the first, 0.01 for the second.

SHALICISHWILGIGDRHLNNFMVAM [PRKDC] was tested, and the SPOT signal as a fraction of Bim BH3's signal on the same receptor and array was 0.02.

Each binder was assayed against Bcl-xL, Q07817 in the same assay as above.
Bcl-xL, Q07817, sequence (Q07817 1-209): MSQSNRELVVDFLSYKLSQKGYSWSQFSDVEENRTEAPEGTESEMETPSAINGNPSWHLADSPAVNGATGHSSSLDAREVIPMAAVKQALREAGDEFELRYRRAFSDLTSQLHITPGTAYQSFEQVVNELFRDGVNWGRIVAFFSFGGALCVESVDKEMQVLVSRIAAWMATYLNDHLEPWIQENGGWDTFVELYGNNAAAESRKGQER

DLSAVTLSRELQAMLEQLAENYHNTW [RYR1] and VLSRIEAGRSDKSVADEFGISKSTFY [TIGD7_3eA] are the same in SPOT signal as a fraction of Bim BH3's signal on the same receptor and array: 0.02 for the first, 0.02 for the second.

CALIAGATLHVAWLLDSQVILVQQGQ [PPM1F] and RLAHEHHCLRIKILLDCYYCVSGLPE [ADCY8] are the same in SPOT signal as a fraction of Bim BH3's signal on the same receptor and array: 0.02 for the first, 0.02 for the second.

Compared with TPSRSALSSELSLVGDTTGDTLEKFV [CREBBP], IGFFIAFGIAMGKMLDQAKLMVDFFN is higher in SPOT signal as a fraction of Bim BH3's signal on the same receptor and array: 0.02 for the first, 0.03 for the second.

First: RCELQICGLAMADAGEYLCVCGQERT [OBSCN]
Second: SKFVILSAHKDVFIGDTLTRQVTAQD [NEDD9]
The SPOT signal as a fraction of Bim BH3's signal on the same receptor and array of the first is lower: 0.01 for the first, 0.02 for the second.

Compared with GLTWDPVGKYIASQADDRSLKVWRTL [HIRA], QLSKPGAALYDQSIGEGFKEAVQYVL [SOS1] is lower in SPOT signal as a fraction of Bim BH3's signal on the same receptor and array: 0.81 for the first, 0.02 for the second.

Going from SALETQVAAAVQALADDYLAQLSLEP [TRO] to NKSLTTLGLVISSLLDQAAGKGKSKF, the SPOT signal as a fraction of Bim BH3's signal on the same receptor and array rises from 0.01 to 0.26.

Going from KNIAGALAFWMANASELLNFIKQDRD [MLLT4] to QQMHHNAATAMAQRLDMLRGLSPRES [NCOR2], the SPOT signal as a fraction of Bim BH3's signal on the same receptor and array rises from 0.03 to 0.13.

First: SKFVILSAHKLVFILDTLSRQAKAAD [BCAR1]
Second: FRLAQMCGLHDVVHADELEELINYYQ [CLTC]
The SPOT signal as a fraction of Bim BH3's signal on the same receptor and array of the first is higher: 0.07 for the first, 0.02 for the second.

First: RDPQGWVAGNDSARGDGAAGFTLPGF [MST1R]
Second: SQGDKRVAFFMRKGADCLSKWVGESE [ATAD2]
The SPOT signal as a fraction of Bim BH3's signal on the same receptor and array of the first is lower: 0.01 for the first, 0.13 for the second.

Compared with DVGTGAGLLEIKKIGDEYFTFITDCK [CCT3], GSGLHGWAFTLKQFLEMYVAKFAAKG [EEF2] is higher in SPOT signal as a fraction of Bim BH3's signal on the same receptor and array: 0.01 for the first, 0.25 for the second.

Going from AICIEEIGVWDKMYSDAFLNDSYLKY to DSLAKFAGRKLKDCLEDLLVEISEVL, the SPOT signal as a fraction of Bim BH3's signal on the same receptor and array falls from 0.05 to 0.02.

First: CILNSFYGYVMRKGARWYSMEMAGIV [POLE]
Second: PSLSKELTSSLAGVGDVSFDSDSQFP [CRTC1]
The SPOT signal as a fraction of Bim BH3's signal on the same receptor and array of the first is higher: 0.18 for the first, 0.01 for the second.

LGLGELAGLTVANELDSLTYDIANNK [STRN] and RIEMWISILELNELLEYAAVELHQAK are the same in SPOT signal as a fraction of Bim BH3's signal on the same receptor and array: 0.02 for the first, 0.02 for the second.

Going from NKRHRPIGIGVQGLLDAFILMRYPFE [RRM1] to AICIEEIGVWMKMYLDAFLNDSYLKY, the SPOT signal as a fraction of Bim BH3's signal on the same receptor and array falls from 0.04 to 0.02.

Compared with NKSLTTLGLVDSSLADQAAGKGKSKF, CGDLASLSIDIWTLGEEVDGRRLVVA [BIRC6] is lower in SPOT signal as a fraction of Bim BH3's signal on the same receptor and array: 0.29 for the first, 0.02 for the second.

ELQAPATVQSLGLLLDRLCVGAAGGF [CDC42BPG] and VDFYQPTCIVLQCGLDSLGCDRLGCF [HDAC3] are the same in SPOT signal as a fraction of Bim BH3's signal on the same receptor and array: 0.01 for the first, 0.01 for the second.

First: SPYVFNGGTIDAIAGEDFAIVASDTR [PSMB1]
Second: ERAISCMGQIICNLLDNLGSDLPNTL [CAND1]
The SPOT signal as a fraction of Bim BH3's signal on the same receptor and array of the first is lower: 0.01 for the first, 0.02 for the second.

PPDAHVLGKALEAAGQDFSLDLRSTG [CIITA] and IGFFIAFGIADGKMGDQAKLMVDFFN are the same in SPOT signal as a fraction of Bim BH3's signal on the same receptor and array: 0.02 for the first, 0.02 for the second.

KKCQDMIMTELTNALDDVVVFYNDKA [ITPR3] and DHTDGVVACADGLIGDLCTAFGKDVL [KPNB1] are the same in SPOT signal as a fraction of Bim BH3's signal on the same receptor and array: 0.02 for the first, 0.02 for the second.

First: DSLAKFAGRKDKDCGEDLLVEISEVL
Second: IQQDLGCGASLGVISDNLLVTGGQGC [SCAP]
The SPOT signal as a fraction of Bim BH3's signal on the same receptor and array of the first is lower: 0.01 for the first, 0.02 for the second.

For SHALICISHWILGIGDRHLNNFMVAM [PRKDC], the SPOT signal as a fraction of Bim BH3's signal on the same receptor and array was 0.02.
